This note sets out measurements from patent publication US20040037843A1.

The IC50 is the point on the concentration scale where inhibition reaches its midpoint.

Like-named read-outs stand apart in the source and are kept apart here.

Assay [1] deals with HLA-A*2401 (purified HLA class I molecule) (human). The assay can be described thus: competition with 125I-labelled standard peptide for purified HLA, gel filtration. A general note: Size exclusion chromatography separates by hydrodynamic size, large species first.
Assay [2] has as its target HLA-A*2401 (human). The assay can be described thus: competition with 125I-labelled probe peptide for purified HLA, gel filtration.
For assay [3], the target named is HLA-A*0201 (human). The assay is described as follows: inhibition of 125I probe peptide binding to purified HLA. The following applies: remark: other sources report otherwise.
In assay [4] the target is HLA-A*0201 (human). To be noted: remark: other sources report otherwise.
For assay [5], the target named is HLA-A*0206 (human). The assay is described as follows: inhibition of 125I probe peptide binding to purified HLA. To be noted: remark: other sources report otherwise.
In assay [6] the target is HLA-A*0202 (human). The assay is described as above. The following applies: remark: other sources report otherwise.
Assay [7] has as its target HLA-A*0201 (human). To be noted: remark: other sources report otherwise. The source holds these as a separate data set.
The target in assay [8] is HLA-A*0203 (human). The assay is described as follows: inhibition of 125I probe peptide binding to purified HLA. To be noted: remark: other sources report otherwise.
Assay [9] concerns the target HLA-A*0203 (human). The following applies: remark: other sources report otherwise.

For VFRHGDRSPI [PAP position 41, 10 amino acids], in assay [1], the relative binding ratio (IC50 of standard peptide / IC50 of test peptide) is 0.0005.

GWGSIEPEEF [Kallikrein position 156, 10 amino acids]: the relative binding ratio (IC50 of standard peptide / IC50 of test peptide) in assay [2] amounted to 0.0001.

For the molecule HYRKWIKDTI [Kallikrein position 248, 10 amino acids], the relative binding ratio (IC50 of standard peptide / IC50 of test peptide) in assay [2] amounted to 0.055.

For the molecule IWSKVYDPL [PAP position 205, 9 amino acids], in [2], the relative binding ratio (IC50 of standard peptide / IC50 of test peptide) stood at 0.0024.

For the molecule DLPTQEPAL [PSA position 136, 9 amino acids], in [3], the relative binding ratio was found to be 0.0003.

Molecule ALDVYNGLL [PAP.299] returned an IC50 in [4] of less than 200 nM.

Take CYASGWGSI [Kallikrein position 152, 9 amino acids]: the relative binding ratio (IC50 of standard peptide / IC50 of test peptide) in assay [2] turned out to be 0.17.

For the molecule IMYSAHDTTV [PAP.284], the IC50 in assay [4] was less than 200 nM.

Molecule LLFFWLDRSVL [Peptide 63.0139 … (PAP.21)] had an IC50 in assay [5] of 822 nM.

As for LLARAASLSV [Peptide 63.0031 … (PAP.7.V10)], the IC50 is 10 nM in assay [6] and 378 nM in assay [5].

On to ALSVGCTGV [peptide 1418.15 (HuK2.9.V9)], for which, in assay [7], the half-maximal inhibitory concentration (IC50) came to 24 nM.

In assay [4], LVLAGGFFL [PSM.26] yielded an IC50 of less than 200 nM.

Regarding AMTNLAALF [PAP position 116, 9 amino acids], the relative binding ratio (IC50 of standard peptide / IC50 of test peptide) in assay [2] turned out to be 0.015.

The molecule LLFFWLDRSV [PAP.21] had an IC50 in [4] of less than 200 nM.

Turning to SWPQGFGQL [PAP position 62, 9 amino acids], the relative binding ratio (IC50 of standard peptide / IC50 of test peptide) in [1] was found to be 0.0013.

Take CARAYSEKVT [Kallikrein position 184, 10 amino acids]: the figures for the relative binding ratio in assay [5], in assay [3] and in assay [8] were 0.003, 0.0074 and 0.02, respectively.

In [4], KLQCVDLHV [PSA.166] yielded an IC50 of less than 200 nM.

The molecule LLFFWLDRSV [Peptide 1097.09 … (PAP.21)] returned an IC50 in [6] of 0.6 nM.

In [7], DLMLLRLSEPV [peptide 63.0109 (HuK2.120.V11)] showed an IC50 of 50 nM.

Molecule ILLWQPIPV [PAP.135] displayed an IC50 in [4] of less than 200 nM.

For the molecule FLRPRSLQCV [HuK2.165], in [4], the IC50 was less than 200 nM.

On to EYIRKRYRKF [PAP position 83, 10 amino acids], for which the relative binding ratio (IC50 of standard peptide / IC50 of test peptide) in assay [2] came out at 0.0067.

Consider FLNESYKHEQV [Peptide 1419.55 … (PAP.92)], for which, in assay [5], the IC50 was 381 nM.

Regarding SLHLLSNDMCA [HuK2.175], in assay [4], the IC50 is less than 200 nM.

The molecule VLAKELKFV [PAP.30] returned an IC50 in [4] of less than 200 nM.

CALPERPSLYT [PSA position 230, 11 amino acids]: the relative binding ratio in assay [5] was found to be 0.0016; in assay [3], 0.0008; in assay [8], 0.0071.

Consider RFQELESETL [PAP position 163, 10 amino acids], for which, in [1], the relative binding ratio (IC50 of standard peptide / IC50 of test peptide) was found to be 0.0001.

For the molecule PYASCHLTEL [PAP position 309, 10 amino acids], the relative binding ratio (IC50 of standard peptide / IC50 of test peptide) in [1] stood at 0.024.

In [3], SLSLGFLFLL [Peptide 1419.51 … (PAP.13)] gave an IC50 of 40 nM.

For PYKDFIATL [PAP position 183, 9 amino acids], in [1], the relative binding ratio (IC50 of standard peptide / IC50 of test peptide) came to 0.11.

In the case of FLNESYKHEQV [PAP.92], the IC50 in assay [4] is less than 200 nM.

Turning to RFAELVGPVI [PAP position 355, 10 amino acids], the relative binding ratio (IC50 of standard peptide / IC50 of test peptide) in [1] was 0.0037.

FLRPRSLQCV [peptide 1419.07 (HuK2.165)] came in with an IC50 in assay [9] of 4.2 nM.

Regarding ALFDIESKV [PSM.711], the IC50 in assay [4] was less than 200 nM.

Molecule LLQERGVAYI [PSM.441] registered an IC50 in assay [4] of less than 200 nM.

For the molecule RMMNDQLMFL [PSM.662], the IC50 in assay [4] was less than 200 nM.

Regarding LMLLRLSEPA [PSA.117], in [4], the IC50 was less than 200 nM.

GLPSIPVHPI [PSM.288]: in [4], the half-inhibitory concentration (IC50) is less than 200 nM.

Take CAGRWTGGKST [PSA position 194, 11 amino acids]: the relative binding ratio in assay [6] stood at 0.037; in assay [5] it was 0.0002; in assay [3], 0.0013; in assay [8], 0.025.

Turning to ALGTTCYA [PSA.143], the IC50 in [4] was less than 200 nM.

For VLAGGFFLL [PSM.27], the IC50 in [4] was less than 200 nM.

In the case of GFLFLLFFWL [PAP position 17, 10 amino acids], the relative binding ratio (IC50 of standard peptide / IC50 of test peptide) in assay [2] amounted to 0.0007.

Regarding GFLFLLFFW [PAP position 17, 9 amino acids], in [2], the relative binding ratio (IC50 of standard peptide / IC50 of test peptide) came out at 0.0016.

Regarding FLTPKKLQCV [PSA.161], the IC50 in assay [4] is less than 200 nM.

As for FFWLDRSVL [PAP position 23, 9 amino acids], in assay [2], the relative binding ratio (IC50 of standard peptide / IC50 of test peptide) was 0.0017.

As to AASLSLGFLFL [Peptide 63.0137 … (PAP.11)], the IC50 in assay [5] is 95 nM; in assay [3], 227 nM.

The molecule LLLARAASL [Peptide 20.0044 … (PAP.6)] showed an IC50 in assay [3] of 208 nM.

With DLPTQEPALGT [PSA position 136, 11 amino acids], the relative binding ratio in assay [6] came out at 0.018; in [5], 0.0001; in assay [3], 0.0041; in [8] it was 0.01.

Turning to MLLRLSEPA [PSA.118 (9-mer …)], the IC50 in assay [4] was less than 200 nM.

Turning to FLFLLFFWV [Peptide 60.0203 … (PAP.18.V9)], the IC50 was determined as 307 nM in assay [6] and 625 nM in [8].

For QLMFLERAFI [PSM.667], the IC50 in assay [4] was less than 200 nM.

Regarding DFIATLGKL [PAP position 186, 9 amino acids], the relative binding ratio (IC50 of standard peptide / IC50 of test peptide) in assay [2] worked out at 0.0002.

Take VLAKELKFVTL [Peptide 63.0142 … (PAP.30)]: the IC50 was found to be 8.1 nM in assay [6] and 6.9 nM in assay [3].

For the molecule LLARAASLSL [Peptide 20.0203 … (PAP.7)], the IC50 in assay [6] worked out at 5.2 nM; in assay [5] it was 9250 nM; in [3], 500 nM.

In the case of GMPEGDLVYV [PSM.168], the IC50 in assay [4] was less than 200 nM.

With SYKHEQVYI [PAP position 96, 9 amino acids], in assay [1], the relative binding ratio (IC50 of standard peptide / IC50 of test peptide) came to 0.26.

LLLARAASV [Peptide 60.0201 … (PAP.6.V9)]: the IC50 in assay [5] came out at 95 nM. This lies in the double-digit nanomolar range.
